# Test results published in PMC3900686, “Mechanisms of the Scaffold Subunit in Facilitating Protein Phosphatase 2A Methylation” (PLoS ONE, 2014).
# B1: PP2A-specific leucine carboxyl methyltransferase 1 (LCMT-1) (enzyme, human, UniProt Q9UIC8 1-334, looked up)
# chain: MATRQRESSITSCCSTSSCDADDEGVRGTCEDASLCKRFAVSIGYWHDPYIQHFVRLSKERKAPEINRGYFARVHGVSQLIKAFLRKTECHCQIVNLGAGMDTTFWRLKDEDLLPSKYFEVDFPMIVTRKLHSIKCKPPLSSPILELHSEDTLQMDGHILDSKRYAVIGADLRDLSELEEKLKKCNMNTQLPTLLIAECVLVYMTPEQSANLLKWAANSFERAMFINYEQVNMGDRFGQIMIENLRRRQCDLAGVETCKSLESQKERLLSNGWETASAVDMMELYNRLPRAEVSRIESLEFLDEMELLEQLMRHYCLCWATKGGNELGLKEITY
# notes: human LCMT-1, cloned into pET15b; For ITC it was pre-loaded with SAH (0.5 mM, 10 min, 37°C)
# B2: A-subunit mutant missing HEAT repeats 2–8 (AΔHR2–8) (domain or fragment, UniProt P30153 9-589, looked up)
# chain: SLYPIAVLIDELRNEDVQLRLNSIKKLSTIALALGVERTRSELLPFIKELVSDANQHVKSALASVIMGLSPILGKDNTIEHLLPLFLAQLKDECPEVRLNIISNLDCVNEVIGIRQLSQSLLPAIVELAEDAKWRVRLAIIEYMPLLAGQLGVEFFDEKLNSLCMAWLVDHVYAIREAATSNLKKLVEKFGKEWAHATIIPKVLAMSGDPNYLHRMTTLFCINVLSEVCGQDITTKHMLPTVLRMAGDPVANVRFNVAKSLQKIGPILDNSTLQSEVKPILEKLTQDQDVDVKYFAQEALTVLSLA
# notes: the FRET fusion is Aα (9–589); source: E. coli DH5α, MBP-tagged, immobilised on maltose resin
# B3: A-subunit mutant A_D61A/E62K/E100A/E101K (natural protein, UniProt P30153 1-589, looked up)
# chain: MAAADGDDSLYPIAVLIDELRNEDVQLRLNSIKKLSTIALALGVERTRSELLPFLTDTIYAKDEVLLALAEQLGTFTTLVGGPEYVHCLLPPLESLATVAKTVVRDKAVESLRAISHEHSPSDLEAHFVPLVKRLAGGDWFTSRTSACGLFSVCYPRVSSAVKAELRQYFRNLCSDDTPMVRRAAASKLGEFAKVLELDNVKSEIIPMFSNLASDEQDSVRLLAVEACVNIAQLLPQEDLEALVMPTLRQAAEDKSWRVRYMVADKFTELQKAVGPEITKTDLVPAFQNLMKDCEAEVRAAASHKVKEFCENLSADCRENVIMSQILPCIKELVSDANQHVKSALASVIMGLSPILGKDNTIEHLLPLFLAQLKDECPEVRLNIISNLDCVNEVIGIRQLSQSLLPAIVELAEDAKWRVRLAIIEYMPLLAGQLGVEFFDEKLNSLCMAWLVDHVYAIREAATSNLKKLVEKFGKEWAHATIIPKVLAMSGDPNYLHRMTTLFCINVLSEVCGQDITTKHMLPTVLRMAGDPVANVRFNVAKSLQKIGPILDNSTLQSEVKPILEKLTQDQDVDVKYFAQEALTVLSLA
# notes: PP2A scaffold Aα-subunit, multiple mutant D61A/E62K/E100A/E101K; Probably made as the wild-type A-subunit
# B4: A-subunit mutant missing HEAT repeats 2–10 (AΔHR2–10, mini-A) (domain or fragment, UniProt P30153 9-589, looked up)
# chain: SLYPIAVLIDELRNEDVQLRLNSIKKLSTIALALGVERTRSELLPFIVELAEDAKWRVRLAIIEYMPLLAGQLGVEYFDEKLNSLCMAWLVDHVYAIREAATSNLKKLVEKFGKEWAHATIIPKVLAMSGDPNYLHRMTTLFCINVLSEVCGQDITTKHMLPTVLRMAGDPVANVRFNVAKSLQKIGPILDNSTLQSEVKPILEKLTQDQDVDVKYFAQEALTVLSLA
# notes: as for B2
# B5: PP2Ac with internal deletion of five residues of the PP2Ac-tail (PP2AcΔ294–298) (enzyme, UniProt P67775 1-309, looked up)
# chain: MDEKVFTKELDQWIEQLNECKQLSESQVKSLCEKAKEILTKESNVQEVRCPVTVCGDVHGQFHDLMELFRIGGKSPDTNYLFMGDYVDRGYYSVETVTLLVALKVRYRERITILRGNHESRQITQVYGFYDECLRKYGNANVWKYFTDLFDYLPLTALVDGQIFCLHGGLSPSIDTLDHIRALDRLQEVPHEGPMCDLLWSDPDDRGGWGISPRGAGYTFGQDISETFNHANGLTLVSRAHQLVMEGYNWCHDRNVVTIFSAPNYCYRCGNQAAIMELDDTLKYSFLQFDPAPHVTRRTPDYFL
# notes: Probably made as the wild-type Cα-subunit (insect cells, His8 tag cleaved); also called shortened PP2Ac
# Columns and labels:
# [1] = target: PP2A core enzyme with the A-subunit mutant A_R183E ( |  ("mammalian …, UniProt P30153 1-589; P67775 1-309, A_R183E); assay: cell-based or functional assay
# [2] = target: PP2A core enzyme with the A-subunit mutant A_R258E ( |  ("mammalian …, UniProt P30153 1-589; P67775 1-309, A_R258E); assay: cell-based or functional assay
# [3] = target: T1, PP2A catalytic Cα-subunit (free PP2Ac) ( ("mammalian PP2Ac"), UniProt P67775 1-309); assay: ITC; 200 µM LCMT-1 (pre-loaded with SAH) titrated to 20 µM PP2A; 25°C; 20 mM Tris pH 7.5, 50 mM NaCl, 50 µM MnCl2; VP-ITC; conditions: both partners purified
# T1 construct: PP2A Cα-subunit (PP2Ac); negligible methylation as purified; also called C-subunit; full-length PP2Ac
# [4] = target: T1, PP2A catalytic Cα-subunit (free PP2Ac); assay: pull-down; core enzymes assembled on the maltose resin with the immobilized MBP-tagged truncated A-subunits; conditions: both partners purified
# [5] = target: the molecule itself; assay: SEC; gel filtration chromatography of wild type and mutant A-subunits
# [6] = target: T2, PP2A scaffold Aα-subunit (full-length A-subunit) (UniProt P30153 1-589); assay: assembly and purification of the core enzyme; stable PP2A core enzyme assembled from A-subunit and PP2Ac and purified as previously described [17]; conditions: both partners purified
# T2 construct: PP2A scaffold Aα-subunit, 15 HEAT repeats; called the full-length A-subunit; the methods say that residues 9–54 were retained in all constructs, and the FRET fusion is Aα (9–589); The true N-terminal limit may be residue 9; also called scaffold subunit
binder,measurement,setting,value
B1,"Km of methylation of the PP2A core enzyme by LCMT-1 (3H-SAM), fold increase against the wild-type core enzyme",[1],1.5 fold
same,"Km of methylation of the PP2A core enzyme by LCMT-1 (3H-SAM), fold increase against the wild-type core enzyme",[2],2 fold
same,fold reduction of binding affinity against the core enzyme,[3],~4 fold
same,stoichiometry N,[3],< 1
B2,binding result,[4],binds
B3,binding result,[5],binds
B4,binding result,[4],binds
B5,binding result,[6],binds
